Target: the molecule itself
Assay: SEC; native mass of purified VvFrsA by size exclusion chromatography, buffer and concentration not told

B1: Fermentation-respiration switch protein (FrsA) from Vibrio vulnificus (enzyme, UniProt Q7MN61 1-415, looked up)
chain: MSEEVSKNLSETLFVKHKQAKETSALTQYMPTSQSLLDEIKEKNGFSWYRNLRRLQWVWQGVDPIEQEQVLARIASSKHSRTDEQWLDTVMGYHSGNWAYEWTRLGMEHQKRAGEMTNEAASEALFSASLCYSIAGYPHLKSDNLAIQAQVLANSAYLEAAKKSKYIIKQLEIPFEKGKITAHLHLTNTDKPHPVVIVSAGLDSLQTDMWRLFRDHLAKHDIAMLTVDMPSVGYSSKYPLTEDYSRLHQAVLNELFSIPYVDHHRVGLIGFRFGGNAMVRLSFLEQEKIKACVILGAPIHDIFASPQKLQQMPKMYLDVLASRLGKSVVDIYSLSGQMAAWSLKVQGFLSSRKTKVPILAMSLEGDPVSPYSDNQMVAFFSTYGKAKKISSKTITQGYEQSLDLAIKWLEDELLR
notes: FrsA (fermentation-respiration switch protein) of Vibrio vulnificus; theoretical mass ca. 47 kDa; Gene cloned between NdeI and XhoI of pET-28a; also called VvFrsA; recombinant VvFrsA
stoichiometry N: 2

— article PMC6450606, “Purification and biochemical characterization of FrsA protein from Vibrio vulnificus as an esterase” (PLoS ONE, 2019)
